Experimental data from the supplement of paper PMC9170038.

Tested on: MS2 coat protein
Test: apparent KD of MS2 coat protein; designed switch direction (-1 OFF switch, 1 ON switch): -1; higher = weaker reporter binding
Summary of the method: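 RNA switches sharing common flanks were transcribed by stalled E. coli RNA polymerase on Illumina chips. A doubling series of SNAP-549-labelled MS2 coat protein, from 0.7 or 1.5 nM to 3 µM, was applied in Tris-HCl pH 7.5 buffer with KCl, MgCl2, BSA, DTT, tRNA and Tween-20. Each step lasted 0.8–1.5 h at the bottom of the series and 10–20 min at the top. Normalised cluster fluorescence was curve-fitted, giving apparent KD as the per-design median over clusters.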

[1] = Eterna round: R95, input ligand: microRNA oligo, concentration not stated
[2] = input ligand: microRNA oligo, concentration not stated
[3] = Eterna round: R95, input ligand: FMN 200 uM
[4] = Eterna round: R95, input ligand: none

Sequence | apparent KD of MS2 coat protein [1] | apparent KD of MS2 coat protein (input ligand: FMN 200 uM) | apparent KD of MS2 coat protein (input ligand: none) | further results
AAUAACAGAGGAUAUACUGUUUUAUGUGUUUAUUGUUUUAAACAUGAGGAUCACCCAUGUAGAAGGCUGAAUGA [JMF 58] (puzzle: Exclusion 2) | 36.4 nM |  |  | 
AAUAACAGAGGAUAUACUGUUUUAUGUGUUUAUUGUUUUGAACAUGAGGAUCACCCAUGUAGAAGGCUGAGUAA [JMF 39] (puzzle: Exclusion 2) | 24.5 nM |  |  | 
AAUAACAGAGGAUAUACUGUUUUAUGUGUUUGUUAUUUUGAACAUGAGGAUCACCCAUGUAGAAGGCUGAGUAA [JMF 37] (puzzle: Exclusion 2) | 23.6 nM |  |  | 
AAUAACAGAGGAUAUACUGUUUUAUGUGUUUGUUGUUUUGAACAUGAGGAUCACCCAUGUAGAAGGCUGAUUAA [JMF 53] (Eterna round: R96, puzzle: Exclusion 2) |  | 38.4 nM | 38.5 nM | apparent KD of MS2 coat protein [2]: 31 nM
AAUAACAGAGGAUAUACUGUUUUAUGUGUUUGUUGUUUUGAACAUGAGGAUCACCCAUGUAGAAGGCUGAUUAA [JMF 53] (puzzle: Exclusion 2) | 31.6 nM |  |  | 
AAUAACAGGCCGAUCCUAAACAUGAGGAUCACCCAUGUGCGCGUCUUGUAAAGUACUAUCACGAAAGUGAUAGUACA [Sensor v3, turn-off variant 1 (MOD of Eli's v1-59 v.3)] (puzzle: Sensor v3, turn-off variant 1) | 37.1 nM |  |  | apparent KD of MS2 coat protein [3]: 41.8 nM; apparent KD of MS2 coat protein [4]: 43.7 nM
AAUAAGGUAGGAUAUACAUGAGGAUCACCCAUGUCCCACCCGUUACCUAUGACCAUAUGUAGAAGGACCAAUAA [Exy#1] (Eterna round: R97, puzzle: Exclusion 3) |  | 20 nM | 21.3 nM | 
AAUAAUAAUGUGAGGAUAUCUAGAGCUUCGGCUCUAGAGAAGGCACAUGAGGAUCACCCAUGUCUCAAUAAUAA [BmEx4/2-E4] (Eterna round: R97, puzzle: Brourd's mod of Exclusion 4) |  | 263 nM | 53.4 nM | 
AAUAAUCAUGUAGGAUAUGCGUGGCAAAGCUAUGCAGAAGGACAUGAGGAUCACCCAUGUUCUAGCGUCUGAGAACAGAUGCUA [Mat - Exclusion NG 1 - Mod of JL - D82] (Eterna round: R96, puzzle: Exclusion NG 1) |  | 384 nM | 41.5 nM | apparent KD of MS2 coat protein [2]: 30.2 nM
AAUAAUCAUGUAGGAUAUGCGUGGCAAAGCUAUGCAGAAGGACAUGAGGAUCACCCAUGUUCUAGCGUCUGAGUACAGAUGCUA [Mat - Exclusion NG 1 - Mod of JL - D81] (Eterna round: R96, puzzle: Exclusion NG 1) |  | 399 nM | 47.4 nM | apparent KD of MS2 coat protein [2]: 32.1 nM
AAUAAUCGGGCCUUCCUAUUACAUGAGGAUCACCCAUGUCUCGAGGAUAUACCGACGCACGGUCCGUAGAAGGCGAGACCACAC [Esusbied] (Eterna round: R96, puzzle: Exclusion NG 3) |  | 141 nM | 24.7 nM | apparent KD of MS2 coat protein [2]: 14.5 nM
AAUAAUGAUAAGGAUAUCACUAGCUUCGGCUAGUGAGAAGGUAUCACAUGAGGAUCACCCAUGUGUUCCAAUAA [Ex6/6-A1] (Eterna round: R97, puzzle: Exclusion 6) |  | 38.1 nM | 18 nM | 
AAUACAAGCUAUUGAUCCCACAUGAGGAUCACCCAUGUAGCUGGCCGUGAGACCAGCUUUACAAUAGCUCGUCUUAU [Sensor-V1 #49] (Eterna round: R97, puzzle: Sensor, turn-off variant 1) |  | 75.2 nM | 71.3 nM | 
AAUACGUGAGGAUAUAGAUGAAGGAACUUGAGGAUCACCCAAGUGGCGUCUAGUUCCUGGCUAGAAGGCACAAAUA [Biedbe] (Eterna round: R97, puzzle: Exclusion 5) |  | 263 nM | 326 nM | 
AAUAGUCGGUAGGAUAUCCACGGAUGACCGGCAGGAGAAGGGCCGACUUGAGGAUCACCCAAGUAUGGUCCUAA [Texeonxe] (Eterna round: R97, puzzle: Exclusion 6) |  | 15.9 nM | 14.5 nM | 
AAUCCUGAAGUUAGGAUAUGAAGUAUCACUGCACUUCAGAAGGGACUUGAGGAUCACCCAAGUAGCCGUGAGGG [salish99_bmod_ex4_r4_001] (Eterna round: R97, puzzle: Brourd's mod of Exclusion 4) |  | 161 nM | 47.5 nM | 
AAUCUGUGAGGAUAUGGUGAGUAGUGCCUGAGCGCUGCUCACCAGAAGGCACAUGAGGAUCACCCAUGUAUGAA [Mat - Exclusion 4 - Mod of JL - D3] (puzzle: Exclusion 4) | 28 nM |  |  | 
AAUGCCGGUGUCAGGAUAUCCGGAGGGAAACCUCCGGAGAAGGGACAUGAGGAUCACCCAUGUAUGUAACCUGC [AK-MS2ROC-r4-Bmoexclusion4-6] (Eterna round: R97, puzzle: Brourd's mod of Exclusion 4) |  | 24.9 nM | 22.2 nM | 
AAUUAAGCAAGCAGAUCCCACAUGAGGAUCACCCAUGUGCUCGUCUUAUAAGGUACUGUGACGAGAGUCACGGUACC [Mat - Sensor, turn-off var - Eli Mod - D70] (Eterna round: R97, puzzle: Sensor, turn-off variant 1) |  | 128 nM | 97.1 nM | 
AAUUAAUUAAUUAAUUAAUACAUGAGGAUCACCCAUGUAAUUUAAGAUCCUUAUACAAGCUUUGAUCUCGUAAUUAA [Stov1/4-A1] (Eterna round: R97, puzzle: Sensor, turn-off variant 1) |  | 98.9 nM | 93.8 nM | 
AAUUACAAGCAAAGAUCUUACAUGAGGAUCACCCAUGUGCUCGUUUUAUAAAGUACUAUCACGAAAGUGAUAGUACA [Mat - Sensor v3 - turn-off var 1 - Eli Mod - D95] (puzzle: Sensor v3, turn-off variant 1) | 90.9 nM |  |  | apparent KD of MS2 coat protein [3]: 29.9 nM; apparent KD of MS2 coat protein [4]: 26.3 nM
AAUUAGCUAGGAUAUACAUGAGGAUCACCCAUGUCAGUUACAUGGCCGGGUGUAACGAGUAGAAGGAGCGCCAA [EX3 B.28] (Eterna round: R97, puzzle: Exclusion 3) |  | 175 nM | 513 nM | 
AAUUAUUUUUGAGGAUAUCGUGGUGAAACACCACGAGAAGGCGAGAUAAACAUGAGGAUCACCCAUGUGAGCCUGAUGCUUAUG [Ex NG1 #50] (Eterna round: R96, puzzle: Exclusion NG 1) |  |  |  | apparent KD of MS2 coat protein [2]: 18.1 nM
AAUUAUUUUUGAGGAUAUGGUGGUGAAACACCACCAGAAGGCGAAAUAAACAUGAGGAUCACCCAUGUGAGCCUGAUGCUUAUG [Ex NG1 #48] (Eterna round: R96, puzzle: Exclusion NG 1) |  |  |  | apparent KD of MS2 coat protein [2]: 19.9 nM
AAUUAUUUUUGAGGAUAUGGUGGUGAAACACCACCAGAAGGCGAGAUAAACAUGAGGAUCACCCAUGUGAGCCUGAUGCUUAUG [Ex NG1 #49] (Eterna round: R96, puzzle: Exclusion NG 1) |  | 29.2 nM | 17.2 nM | apparent KD of MS2 coat protein [2]: 12.6 nM
AAUUCACAUGAGGAUCACCCAUGUCAGGAUAUGGUUUCACGUUUUUCUUUGCUUGAGGCCAGAAGGGACAGCUA (puzzle: Exclusion 1) | 54.2 nM |  |  | 
